The DeepSol protein solubility set

Assay: soluble on expression in E. coli; label from the status in PepcDB or PDB records
In the case of “GPMSAQDVENAVEAALDPSVGPIIKQQATDFIGSLRSSSTGWKICHEIFSEKTKYKPSTRLICLQTLSEKVREWNNESNLLELQMIRDSVWSYIKELSFLDEPAYISNAVQHLLTLLFLQLYPSNWNDFFASLQGVIAASSQSEFSNFYLKVLLSIGDEIADSLVLKTDVQIQKDNLVKDAIRANDMSDIVSFVYEMMLAYSNAKNYGTVGLCLQVYAQWVSWININLIVNEPCMNLLYSFLQIEELRCAACETMTEIVNKKMKPLEKLNLLNILNLNLFFSKSQEQSTDPNFDEHVAKLINAQGVELVAIKSDPSELSPELKENCSFQLYNLFPYLIRYLSDDYDETSTAVFPFLSDLLVSLRKESSSKELSASLKEFLKSLLEAIIKKMKYDESQEWDDDPDSEEEAEFQEMRKKLKIFQDTINSIDSSLFSSYMYSAITSSLSTAATLSPENSWQLIEFALYETYIFGEGLRGPDAFFNEVDKSPTVLSQILALVTTSQVCRHPHPLVQLLYMEILVRYASFFDYESAAIPALIEYFVGPRGIHNTNERVRPRAWYLFYRFVKSIKKQVVNYTESSLAMLGDLLNISVSPVTDMDAPVPTLNSSIRNSDFNSQLYLFETVGVLISSGNLTPEEQALYCDSLINALIGKANAALSSDLSALENIISVYCSLMAIGNFAKGFPARGSEEVAWLASFNKASDEIFLILDRMGFNEDIRGAVRFTSGRIINVVGPDMLPKVPQLISILLNSIDMNELVDVLSFISQLIHIYKDNMMEITNRMLPTLLMRIFSSLSAAPQGTDDAVKQNDLRKSYISFILQLLNKGFGSILFTEENQVYFDPLINSILHFANLVGEPATQKSSIALVSKMVSLWGGKDGIAGFENFTLSLTPLCFEMPVNPNFNTRDGQSLVVLGELAGLQKIILEKLGDIYKSYLVTVYFPTVNFPDVMASEYLQALSNLDSRSFKQFFQKFIQALKSGNV”, the “soluble on expression in E. coli” value is reported as “soluble”.
With GPPPPPGPPPPPGPPPPPGL the “soluble on expression in E. coli” value was “soluble”.
For “GQDTGEDNLAIKGITTLNDLTMVNVSGPGMKGMVGMASRVFGAMSSAGVSIVLITQSSSEYSISFCIEADDKLKAQQVLADAFELELKDGLLEPVDFIDDVSIVTLVGDGMRTSRGVASRFFSSLAEVNVNIVAIAQGSSERAISAVIPEDKISEAIKACHENLFNSKYF”, the “soluble on expression in E. coli” value was “not soluble”.
With “GQSGPLPKPSLQALPSSLVPLEKPVTLRCQGPPGVDLYRLEKLSSSRYQDQAVLFIPAMKRSLAGRYRCSYQNGSLWSLPSDQLELVATGVFAKPSLSAQPGPAVSSGGDVTLQCQTRYGFDQFALYKEGDPAPYKNPERWYRASFPIITVTAAHSGTYRCYSFSSRDPYLWSAPSDPLELVVT” the “soluble on expression in E. coli” value was “soluble”.
In the case of “GQYDYIKVAVSLMGSAYYVDFAKELSKYALAQGLTFPYDVDERILALQKYDLTQNITKINNRPLLLWHGKKDDVVPFAYSEKLYQTLVEESLADNVEFIIDDNAKHKVSVEGMLQGVSFFEKFL”, the “soluble on expression in E. coli” value is reported as “not soluble”.
For “GRDGNNLNNPVLLLDTFDFGPREDNWFFYPGGNIGLYCPYSSKGAPEEDSAMVFVSNEVGEHSITTRDLSVNENTIIQFEINVGCSTDSSSADPVRLEFSRDFGATWHLLLPLCYHSSSLVSSLCSTEHHPSSTYYAGTTQGWRREVVHFGKLHLAGSVRFRWYQGFYPAGSQPVTWAIDNVYIGPQCEEMCYGHGSCINGTKCICDPGYSGPTCKISTKNPDFLKDDFEGQLESDRFLLMSGGKPSRKCGILSSGNNLFFNEDGLRMLVTRDLDLSHARFVQFFMRLGCGKGVPDPRSQPVLLQYSLNGGLSWSLLQEFLFSNSSNVGRYIALEMPLKARSGSTRLRWWQPSENGHFYSPWVIDQILIGGNISGNTVLEDDFSTLDSRKWLLHPGGTKMPVCGSTGDALVFIEKASTRYVVTTDIAVNEDSFLQIDFAASCSVTDSCYAIELEYSVDLGLSWHPLVRDCLPTNVECSRYHLQRILVSDTFNKWTRITLPLPSYTRSQATRFRWHQPAPFDKQQTWAIDNVYIGDGCLDMCSGHGRCVQGSCVCDEQWGGLYCDEPETSLPTQLKDNFNRAPSNQNWLTVSGGKLSTVCGAVASGLALHFSGGCSRLLVTVDLNLTNAEFIQFYFMYGCLITPSNRNQGVLLEYSVNGGITWNLLMEIFYDQYSKPGFVNILLPPDAKEIATRFRWWQPRHDGLDQNDWAIDNVLISRLENLYFQ”, the “soluble on expression in E. coli” value was “soluble”.
With “GRWILKNDVKNRSVYIKGFPTDATLDDIKEWLEDKGQVLNIQMRRTLHKAFKGSIFVVFDSIESAKKFVETPGQKYKETDLLILFKDDYFAKKNEERKQNKVE” the “soluble on expression in E. coli” value was “soluble”.
With “GSDPGPEAARLRFRCFHYEEATGPQEALAQLRELCRQWLRPEVRSKEQMLELLVLEQFLGALPPEIQARVQGQRPGSPEEAAALVDGLRREPGG” the “soluble on expression in E. coli” value was “soluble”.
With “GSGEQHFAEGHEQAFTGKESAAMKDVVSGHATHEAGKSTTAQPTETRSTSESSHSLRDSIMAQVRDAVTTREPNGNGRISIRLNPVELGELTINVRVADQQVKVDVVAANGQVRDILLNNLDNLKENFSRQNLTMTGFDVSTGT” the “soluble on expression in E. coli” value was “not soluble”.
With “GSGTGAGEGHEGYVTRKHEWDSTTKKASNRSWDKVYMAAKAGRISFYKDQKGYKSNPELTFRGEPSYDLQNAAIEIASDYTKKKHVLRVKLANGALFLLQAHDDTEMSQWVTSLKAQSDSTA” the “soluble on expression in E. coli” value was “soluble”.
With “GSHEATVEYLADLVKEKKHLTLFPHMFSNVERLLDDEIGRVRVALFQTEFPRVELPEPAG” the “soluble on expression in E. coli” value was “soluble”.
In the case of “GSHMASMTGGQQMGRGSGSHMASMTGGQQMGRGSRVGEQSQAGDPGLVSAYGPGLEGGTTGVSSEFIVNTLNAGSGALSVTIDGPSKVQLDCRECPEGHVVTYTPMAPGNYLIAIKYGGPQHIVGSPFKAKVTGPRLS”, the “soluble on expression in E. coli” value is reported as “soluble”.
For “GSHMDASKIDQPDLAEVANASLDKKQVIGRISIPSVSLELPVLKSSTEKNLLSGAATVKENQVMGKGNYALAGHNMSKKGVLFSDIASLKKGDKIYLYDNENEYEYAVTGVSEVTPDKWEVVEDHGKDEITLITCVSVKDNSKRYVVAGDLVGTKAKK”, the “soluble on expression in E. coli” value was “soluble”.
For “GSHMEEKLAVSLQEALQEGDTRALREVLEEIHPQDLLALWDELKGEHRYVVLTLLPKAKAAEVLSHLSPEEQAEYLKTLPPWRLREILEELSLDDLADALQAVRKEDPAYFQRLKDLLDPRTRAEVEALARYEEDEAGGLMTPEYVAVREGMTVEEVLRFLRRAAPDAETIYYIYVVDEKGRLKGVLSLRDLIVADPRTRVAEIMNPKVVYVRTDTDQEEVARLMADYDFTVLPVVDEEGRLVGIVTVDDVLDVLEAEATEDIHKLGAVDVPDLVYSE”, the “soluble on expression in E. coli” value was “soluble”.
With “GSHMESGYAQNGDLEDAELDDYSFSCYSQLEVNGSQHSLTCAFEDPDVNTTNLEFEICGALVEVKCLNFRKLQEIYFIETKKFLLIGKSNICVKVGEKSLTCKKIDLTTIVKPEAPFDLSVVYREGANDFVVTFNTSHLQKKYVKVLMHDVAYRQEKDENKWTHVNLSSTKLTLLQRKLQPAAMYEIKVRSIPDHYFKGFWSEWSPSYYFRTPEINNSSGEMD” the “soluble on expression in E. coli” value was “soluble”.
With “GSHMIKVLSPAKINLGLWVLGRLPSGYHEILTLYQEIPFYDEIYIREGVLRVETNIGIPQEENLVYKGLREFERITGIEINYSIFIQKNIPPGAGLGGGSSNLAVVLKKVNELLGSPLSEEELRELVGSISADAPFFLLGKSAIGRGKGEVLEPVETEISGKITLVIPQVSSSTGRVYSSLREEHFVTPEYAEEKIQRIISGEVEEIENVLGDIARELYPEINEVYRFVEYLGFKPFVSGSGSTVYFFGGASEELKKAAKMRGWKVVELEL” the “soluble on expression in E. coli” value was “soluble”.
For “GSHMKNSVSVDLPGSMKVLVSKSSNADGKYDLIATVDALELSGTSDKNNGSGVLEGVKADASKVKLTISDDLGQTTLEVFKSDGSTLVSKKVTRADGTRLEYTGIKSDGSGKAKEVLKGYVLEGTLTAEKTTLVVKEGTVTLSKNISKSGEVSVELNDTDSSAATKKTAAWNSGTSTLTITVNSKKTKDLVFTSSNTITVQQYDSNGTSLEGSAVEITKLDEIKNALK”, the “soluble on expression in E. coli” value was “soluble”.
In the case of “GSHMLEDPQRRIRRPFSVAEVEALVQAVEKLGTGRWRDVKLCAFEDADHRTYVDLKDKWKTLVHTAKISPQQRRGEPVPQELLNRVLNAHGYWTQQQMQQLQQNV”, the “soluble on expression in E. coli” value is reported as “soluble”.
